Laboratory results published in publication PMC8031885.

How the values were obtained:
[1] = biological target: gH/gL/gO trimer of HCMV TB40-BAC4 (human cytomegalovirus, strain TB40/E (TB40-BAC4))
[2] = biological target: PDGF-BB (UniProt P01127)
[3] = biological target: PDGF-BB (UniProt P01127); remark: listed apart in the source
[4] = biological target: gH/gL/gO trimer of HCMV TB40-BAC4 (human cytomegalovirus, strain TB40/E (TB40-BAC4)); remark: listed apart in the source
[5] = biological target: gH/gL/gO trimer of HCMV TB40-BAC4 (human cytomegalovirus, strain TB40/E (TB40-BAC4)); remark: listed apart in the source

PDGF-BB, sequence (P01127 82-190): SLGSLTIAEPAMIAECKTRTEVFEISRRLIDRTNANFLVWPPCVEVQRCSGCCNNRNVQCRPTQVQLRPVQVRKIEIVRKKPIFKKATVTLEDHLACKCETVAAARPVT
PDGFRα-Fc delM133-I139, sequence (P16234 other isoform, or with tags, fused parts or gaps, stated change not applied): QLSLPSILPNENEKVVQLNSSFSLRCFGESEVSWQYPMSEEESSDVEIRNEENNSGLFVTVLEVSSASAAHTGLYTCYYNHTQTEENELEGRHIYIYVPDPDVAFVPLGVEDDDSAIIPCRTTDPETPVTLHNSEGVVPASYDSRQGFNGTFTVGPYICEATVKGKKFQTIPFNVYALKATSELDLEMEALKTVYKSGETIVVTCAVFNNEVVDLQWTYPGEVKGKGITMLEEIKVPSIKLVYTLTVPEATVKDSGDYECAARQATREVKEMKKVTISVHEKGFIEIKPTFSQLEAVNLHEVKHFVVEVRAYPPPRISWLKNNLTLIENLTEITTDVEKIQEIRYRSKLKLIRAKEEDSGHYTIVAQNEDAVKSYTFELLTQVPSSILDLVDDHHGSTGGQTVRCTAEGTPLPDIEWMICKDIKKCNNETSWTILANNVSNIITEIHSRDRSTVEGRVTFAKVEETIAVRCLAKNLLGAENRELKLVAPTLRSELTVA
PDGFRα-Fc delQ294-E298, sequence (P16234 other isoform, or with tags, fused parts or gaps, stated change not applied): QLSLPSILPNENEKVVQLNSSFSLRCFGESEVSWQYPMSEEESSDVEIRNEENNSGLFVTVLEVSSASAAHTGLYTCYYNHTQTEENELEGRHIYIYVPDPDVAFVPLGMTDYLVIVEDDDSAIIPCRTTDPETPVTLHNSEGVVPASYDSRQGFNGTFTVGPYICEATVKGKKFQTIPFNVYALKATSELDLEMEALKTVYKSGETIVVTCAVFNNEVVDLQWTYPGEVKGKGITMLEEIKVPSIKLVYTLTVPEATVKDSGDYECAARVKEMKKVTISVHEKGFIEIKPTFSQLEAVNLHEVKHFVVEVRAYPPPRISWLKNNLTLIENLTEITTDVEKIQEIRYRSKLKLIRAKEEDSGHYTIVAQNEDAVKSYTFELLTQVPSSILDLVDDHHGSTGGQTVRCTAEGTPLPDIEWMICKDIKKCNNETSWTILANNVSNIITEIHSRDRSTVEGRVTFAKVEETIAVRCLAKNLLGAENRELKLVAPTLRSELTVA
PDGFRα-Fc delN204-Y206, sequence (P16234 other isoform, or with tags, fused parts or gaps, stated change not applied): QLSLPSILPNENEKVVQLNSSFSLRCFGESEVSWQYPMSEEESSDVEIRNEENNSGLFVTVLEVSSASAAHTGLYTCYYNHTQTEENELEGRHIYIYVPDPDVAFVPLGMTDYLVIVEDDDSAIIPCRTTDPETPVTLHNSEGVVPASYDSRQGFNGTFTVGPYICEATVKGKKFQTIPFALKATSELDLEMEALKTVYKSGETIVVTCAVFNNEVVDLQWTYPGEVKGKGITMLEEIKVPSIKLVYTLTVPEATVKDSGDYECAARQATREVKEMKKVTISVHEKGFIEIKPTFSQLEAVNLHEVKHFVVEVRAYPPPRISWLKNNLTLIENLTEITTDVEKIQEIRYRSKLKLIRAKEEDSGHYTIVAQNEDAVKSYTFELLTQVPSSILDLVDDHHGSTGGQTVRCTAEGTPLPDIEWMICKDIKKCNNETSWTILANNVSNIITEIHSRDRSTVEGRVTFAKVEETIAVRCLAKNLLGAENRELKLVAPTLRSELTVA

Substance: PDGFRα-Fc E298A (from UniProt P16234-1 24-528) (Fc fusion)
- inhibition of HCMV TB40-BAC4-IE-GLuc infection of fibroblasts (Gaussia luciferase read-out), against wild type (fold increase of the inhibitory effect) [1]: 3

Substance: PDGFRα-Fc I139A (from UniProt P16234-1 24-528) (Fc fusion)
- reduction of p-Akt signal induced by 6 ng/ml PDGF-BB in fibroblasts, quantitative immunoblot, 4000 ng/ml PDGFRα-Fc [2]: 80%
- inhibition of HCMV TB40-BAC4-IE-GLuc infection of fibroblasts (Gaussia luciferase read-out), against wild type (fold decrease of the efficiency) [1]: 4
- reduction of Akt phosphorylation induced by 50 ng/ml PDGF-BB in fibroblasts, phospho-Akt immunoblot, 4,000 ng/ml PDGFRα-Fc [3]: 20%

Substance: PDGFRα-Fc I139L (from UniProt P16234-1 24-528) (Fc fusion)
- HCMV inhibition EC50 (TB40-BAC4-IE-GLuc, fibroblasts, immediate-early antigen staining) [4]: 6.6 ng/mL

Substance: PDGFRα-Fc I139V (from UniProt P16234-1 24-528) (Fc fusion)
- HCMV inhibition EC50 (TB40-BAC4-IE-GLuc, fibroblasts, immediate-early antigen staining) [4]: 9.5 ng/mL

Substance: PDGFRα-Fc Q294A (from UniProt P16234-1 24-528) (Fc fusion)
- inhibition of HCMV TB40-BAC4-IE-GLuc infection of fibroblasts (Gaussia luciferase read-out), against wild type (fold increase of the inhibitory effect) [1]: 3

Substance: PDGFRα-Fc T296A (from UniProt P16234-1 24-528) (Fc fusion)
- inhibition of HCMV TB40-BAC4-IE-GLuc infection of fibroblasts (Gaussia luciferase read-out), against wild type (fold increase of the inhibitory effect) [1]: 3

Substance: PDGFRα-Fc Y206A (from UniProt P16234-1 24-528) (Fc fusion)
- inhibition of HCMV TB40-BAC4-IE-GLuc infection of fibroblasts (Gaussia luciferase read-out), against wild type (fold decrease of the efficiency) [1]: 4
- reduction of Akt phosphorylation induced by 50 ng/ml PDGF-BB in fibroblasts, phospho-Akt immunoblot, 4,000 ng/ml PDGFRα-Fc [3]: 60%

Substance: PDGFRα-Fc Y206F (from UniProt P16234-1 24-528) (Fc fusion)
- HCMV inhibition EC50 (TB40-BAC4-IE-GLuc, fibroblasts, immediate-early antigen staining) [4]: 5.9 ng/mL

Substance: PDGFRα-Fc delM133-I139 (from UniProt P16234-1 24-528) (Fc fusion)
- inhibition of HCMV TB40-BAC4-IE-GLuc infection of fibroblasts (Gaussia luciferase read-out), 4,000 to 1 ng/ml; EC50 against wild type (fold higher EC50 than wild type) [5]: 10

Substance: PDGFRα-Fc delN204-Y206 (from UniProt P16234-1 24-528) (Fc fusion)
- inhibition of HCMV TB40-BAC4-IE-GLuc infection of fibroblasts (Gaussia luciferase read-out), 4,000 to 1 ng/ml; EC50 against wild type (fold higher EC50 than wild type) [5]: 10

Substance: PDGFRα-Fc delQ294-E298 (from UniProt P16234-1 24-528) (Fc fusion)
- inhibition of HCMV TB40-BAC4-IE-GLuc infection of fibroblasts (Gaussia luciferase read-out), 4,000 to 1 ng/ml; EC50 against wild type (fold higher EC50 than wild type) [5]: 10
